The results in this text go back to patent US20220332804A1 (CSL INNOVATION, published 2022).

Assay in all cases: SPR, KD relative to WT C2;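 further: biacore SPR at 37 °C, anti-C2 mAbs captured via immobilised goat anti-human IgG, C2 alanine or serine surface mutants as analytes, 1:1 model fitted, double-referenced sensograms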
For assay [1], the target named is T1, human C2 N380A (human, UniProt P06681 21-752).
T1 sequence: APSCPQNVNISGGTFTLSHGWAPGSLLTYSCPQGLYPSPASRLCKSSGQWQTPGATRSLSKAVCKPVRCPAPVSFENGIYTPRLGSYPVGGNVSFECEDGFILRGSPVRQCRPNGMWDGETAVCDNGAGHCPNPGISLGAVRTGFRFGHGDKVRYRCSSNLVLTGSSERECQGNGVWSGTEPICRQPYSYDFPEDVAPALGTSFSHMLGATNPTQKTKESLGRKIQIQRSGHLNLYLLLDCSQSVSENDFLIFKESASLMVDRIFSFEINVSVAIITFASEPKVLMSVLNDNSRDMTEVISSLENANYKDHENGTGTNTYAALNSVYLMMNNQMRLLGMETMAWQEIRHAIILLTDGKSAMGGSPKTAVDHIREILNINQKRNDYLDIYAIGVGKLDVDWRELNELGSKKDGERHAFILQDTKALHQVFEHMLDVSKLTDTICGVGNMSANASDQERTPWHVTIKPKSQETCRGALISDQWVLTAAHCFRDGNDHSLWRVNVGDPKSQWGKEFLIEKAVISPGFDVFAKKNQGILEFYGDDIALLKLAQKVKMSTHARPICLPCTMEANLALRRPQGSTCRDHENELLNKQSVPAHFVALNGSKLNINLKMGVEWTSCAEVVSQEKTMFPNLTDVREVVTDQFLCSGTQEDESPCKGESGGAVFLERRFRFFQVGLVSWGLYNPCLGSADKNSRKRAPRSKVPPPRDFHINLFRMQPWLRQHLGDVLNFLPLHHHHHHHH

Assay [2] addresses T2, human C2 A472S (human, UniProt P06681 21-752).
T2 sequence: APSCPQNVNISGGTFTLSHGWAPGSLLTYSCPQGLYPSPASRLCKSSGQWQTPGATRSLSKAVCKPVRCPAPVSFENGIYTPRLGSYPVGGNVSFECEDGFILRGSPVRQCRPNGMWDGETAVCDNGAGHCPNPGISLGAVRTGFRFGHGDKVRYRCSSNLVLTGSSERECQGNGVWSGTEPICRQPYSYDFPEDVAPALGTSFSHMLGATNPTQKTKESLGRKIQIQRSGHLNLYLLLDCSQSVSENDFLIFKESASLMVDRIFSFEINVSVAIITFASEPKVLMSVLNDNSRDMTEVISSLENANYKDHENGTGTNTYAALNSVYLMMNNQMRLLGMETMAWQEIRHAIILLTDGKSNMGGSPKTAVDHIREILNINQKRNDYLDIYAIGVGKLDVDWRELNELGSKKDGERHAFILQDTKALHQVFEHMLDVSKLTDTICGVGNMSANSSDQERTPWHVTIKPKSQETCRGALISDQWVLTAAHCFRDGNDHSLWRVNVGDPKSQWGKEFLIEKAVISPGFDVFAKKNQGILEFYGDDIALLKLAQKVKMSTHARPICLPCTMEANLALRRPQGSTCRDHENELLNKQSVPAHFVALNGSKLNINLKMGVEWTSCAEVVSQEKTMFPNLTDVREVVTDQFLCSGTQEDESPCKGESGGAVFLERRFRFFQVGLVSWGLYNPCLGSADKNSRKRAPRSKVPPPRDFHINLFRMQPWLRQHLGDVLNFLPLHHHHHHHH

In assay [3] the target is T3, human C2 Q489A (human, UniProt P06681 21-752).
T3 sequence: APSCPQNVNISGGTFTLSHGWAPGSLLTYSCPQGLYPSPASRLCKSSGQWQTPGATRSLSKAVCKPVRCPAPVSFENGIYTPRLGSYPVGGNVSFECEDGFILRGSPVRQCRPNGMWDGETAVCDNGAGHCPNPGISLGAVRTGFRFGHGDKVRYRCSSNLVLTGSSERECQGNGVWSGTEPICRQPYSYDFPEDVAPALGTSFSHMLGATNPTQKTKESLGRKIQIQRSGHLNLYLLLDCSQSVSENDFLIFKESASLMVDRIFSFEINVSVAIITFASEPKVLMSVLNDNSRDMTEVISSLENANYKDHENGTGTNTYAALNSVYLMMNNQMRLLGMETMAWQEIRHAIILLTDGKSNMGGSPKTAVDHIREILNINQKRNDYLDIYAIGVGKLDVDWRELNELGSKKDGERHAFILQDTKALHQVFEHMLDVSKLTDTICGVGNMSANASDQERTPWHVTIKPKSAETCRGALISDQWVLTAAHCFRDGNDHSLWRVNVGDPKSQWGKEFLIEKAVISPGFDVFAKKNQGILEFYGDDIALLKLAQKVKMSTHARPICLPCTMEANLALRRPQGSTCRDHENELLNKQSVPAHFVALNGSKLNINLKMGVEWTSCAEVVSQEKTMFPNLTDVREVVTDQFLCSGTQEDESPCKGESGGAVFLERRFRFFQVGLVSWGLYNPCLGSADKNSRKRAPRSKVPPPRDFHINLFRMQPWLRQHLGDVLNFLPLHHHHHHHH

Assay [4] has as its target T4, human C2 M648A (human, UniProt P06681 21-752).
T4 sequence: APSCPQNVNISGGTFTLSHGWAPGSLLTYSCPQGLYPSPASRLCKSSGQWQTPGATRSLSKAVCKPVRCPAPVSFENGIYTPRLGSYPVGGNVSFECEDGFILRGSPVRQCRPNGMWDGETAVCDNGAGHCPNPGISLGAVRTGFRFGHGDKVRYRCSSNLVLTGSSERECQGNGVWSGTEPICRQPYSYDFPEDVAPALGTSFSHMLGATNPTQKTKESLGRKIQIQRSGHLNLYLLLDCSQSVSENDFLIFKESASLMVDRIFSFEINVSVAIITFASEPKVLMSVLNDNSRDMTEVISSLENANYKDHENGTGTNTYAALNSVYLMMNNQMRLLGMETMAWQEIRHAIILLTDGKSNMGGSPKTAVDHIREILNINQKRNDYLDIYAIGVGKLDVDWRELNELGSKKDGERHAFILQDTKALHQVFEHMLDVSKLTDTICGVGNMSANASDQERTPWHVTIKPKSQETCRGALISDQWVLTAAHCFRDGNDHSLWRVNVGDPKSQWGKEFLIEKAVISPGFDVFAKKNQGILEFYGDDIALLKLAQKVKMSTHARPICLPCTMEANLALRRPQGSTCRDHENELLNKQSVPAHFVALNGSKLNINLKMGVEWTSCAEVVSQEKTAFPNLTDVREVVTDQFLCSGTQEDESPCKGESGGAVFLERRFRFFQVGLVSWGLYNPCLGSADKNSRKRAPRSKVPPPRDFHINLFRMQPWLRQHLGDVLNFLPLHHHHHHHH

B1: RF16-226 (antibody, human IgG4 S228P, lambda)
heavy: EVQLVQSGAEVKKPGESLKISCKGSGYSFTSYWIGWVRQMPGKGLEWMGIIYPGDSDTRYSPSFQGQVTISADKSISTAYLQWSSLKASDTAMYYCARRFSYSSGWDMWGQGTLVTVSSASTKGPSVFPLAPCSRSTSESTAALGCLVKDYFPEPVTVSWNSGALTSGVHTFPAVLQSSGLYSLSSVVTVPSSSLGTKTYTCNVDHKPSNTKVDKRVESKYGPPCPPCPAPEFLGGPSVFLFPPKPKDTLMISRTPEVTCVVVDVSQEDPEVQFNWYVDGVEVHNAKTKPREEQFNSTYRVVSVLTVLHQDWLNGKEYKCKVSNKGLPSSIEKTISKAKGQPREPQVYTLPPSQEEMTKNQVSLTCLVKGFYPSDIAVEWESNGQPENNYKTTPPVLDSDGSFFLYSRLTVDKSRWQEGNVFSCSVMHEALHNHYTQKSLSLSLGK
light: SYELTQPPSVSVSPGQTARITCSGDALTSKYVAWYQQKSGLAPLLVIYEDTRRPSGIPAKFSGSSSGSVATLTISGAHGDDEADYYCYSTDASGHQRVFGGGTKLTVLSQPKAAPSVTLFPPSSEELQANKATLVCLISDFYPGAVTVAWKADGSPVKAGVETTKPSKQSNNKYAASSYLSLTPEQWKSHRSYSCQVTHEGSTVEKTVAPTECS
notes: pH-dependent anti-C2 antibody from a phage display library; also called WT
Take B1: the Fold diff in assay [1] was 2 fold; in assay [2] it was 5 fold; in assay [3] it was 10 fold; in assay [4], 20 fold.
